Measurements as given in PMC9005727, “ComFC mediates transport and handling of single-stranded DNA during natural transformation” (Nature Communications, 2022).

T1: ComFC (His6-ComFC) (Helicobacter pylori, UniProt O26008)
T1 construct: gene HP_1473; full length, 191 residues, His6 tag kept (six His codons added at 5' end; also called ComFC-6His), pET21a, E. coli BL21(DE3) Gold
T1 sequence (O26008 1-191): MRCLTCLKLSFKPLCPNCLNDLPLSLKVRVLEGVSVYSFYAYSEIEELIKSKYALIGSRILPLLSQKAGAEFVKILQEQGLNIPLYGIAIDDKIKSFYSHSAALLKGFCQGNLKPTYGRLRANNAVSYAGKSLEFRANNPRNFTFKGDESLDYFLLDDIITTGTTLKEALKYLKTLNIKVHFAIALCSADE

T2: ComFC WT (His6-ComFC) (Helicobacter pylori 26695, UniProt O26008 1-191)
T2 sequence: T1 sequence (O26008 1-191)

B1: XV2 62-mer ssDNA (ssDNA)
DNA: TGGGTGAACCTGCAGGTGGGCAAAGATGTCCTAGCAATGTAATCGTCAAGCTTTATGCCGTT

Experiments:
ComFC (His6-ComFC) = biological target: T1, ComFC (His6-ComFC); experiment: differential scanning fluorimetry (SYPRO Orange); format: binding; details: 20 mM Tris-Cl pH 7.5, 200 mM NaCl
ComFC T165A = ComFC T165A (Helicobacter pylori 26695, UniProt O26008 1-191, T165A); experiment: EMSA; no significant difference from WT; details: protein: recombinant; label: 5'-Cy5
ComFC WT (His6-ComFC) = biological target: T2, ComFC WT (His6-ComFC); experiment: EMSA; EMSA: 10 mM Tris-HCl pH 7.5, 50 mM KCl, 1 mM DTT, 0.1 ug/ul BSA, 4 °C, 30 min; native 6% TBE-PAGE; details: protein: recombinant; tags: His6 (text: codons added at 5' end, also written ComFC-6His); label: 5'-Cy5

Molecule | dTm (ComFC (His6-ComFC)) | binding result (ComFC T165A) | apparent K (half saturation) (ComFC WT (His6-ComFC))
Nc1ncnc2c1ncn2[C@@H]1O[C@H](COP(=O)(O)OP(=O)(O)O)[C@@H](O)[C@H]1O [ADP] | ADP addition also resulted in an increase in melting temperature |  | 
B1 |  | binds | 300 nM
